Assays:
Assay in all cases: purified protein
[1] = test system: NC(=O)c1ccc[n+]([C@@H]2O[C@H](COP(=O)(O)OP(=O)(O)OC[C@H]3O[C@@H](n4cnc5c(N)ncnc54)[C@H](OP(=O)(O)O)[C@@H]3O)[C@@H](O)[C@H]2O)c1; conditions: oxidative deamination, 150 mM L-Glu, 80 mM imidazole pH 6.0, 25 °C, pH 6.0
O=C(O)CCC(=O)C(=O)O = conditions: reductive amination, 0.2 mM NADH, 50 mM NH4Cl, 80 mM Tris-HCl pH 8.0, 25 °C, pH 8.0
[2] = test system: NC(=O)c1ccc[n+]([C@@H]2O[C@H](COP(=O)(O)OP(=O)(O)OC[C@H]3O[C@@H](n4cnc5c(N)ncnc54)[C@H](O)[C@@H]3O)[C@@H](O)[C@H]2O)c1; conditions: oxidative deamination, 150 mM L-Glu, 80 mM CHES pH 9.5, 25 °C, pH 9.5
[3] = test system: NC(=O)C1=CN([C@@H]2O[C@H](COP(=O)(O)OP(=O)(O)OC[C@H]3O[C@@H](n4cnc5c(N)ncnc54)[C@H](OP(=O)(O)O)[C@@H]3O)[C@@H](O)[C@H]2O)C=CC1; conditions: reductive amination, 5 mM α-KG, 50 mM NH4Cl, 80 mM Tris-HCl pH 8.0, 25 °C, pH 8.0
[4] = test system: NC(=O)C1=CN([C@@H]2O[C@H](COP(=O)(O)OP(=O)(O)OC[C@H]3O[C@@H](n4cnc5c(N)ncnc54)[C@H](O)[C@@H]3O)[C@@H](O)[C@H]2O)C=CC1; conditions: reductive amination, 5 mM α-KG, 50 mM NH4Cl, 80 mM Tris-HCl pH 8.0, 25 °C, pH 8.0

GdhPa (Pantoea ananatis LMG 5342) gave a Km [1] of 440 ± 50 µM, a Vmax [1] of 0.67 µmol/min/mg and a kcat [1] of 0.52 s⁻¹. For the same substance, the kcat/Km [1] was 1180 M⁻¹ s⁻¹, the Km (O=C(O)CCC(=O)C(=O)O) was 1300 ± 210 µM and the Vmax (O=C(O)CCC(=O)C(=O)O) was 5.93 µmol/min/mg. It also gave a kcat (O=C(O)CCC(=O)C(=O)O) of 4.6 s⁻¹, a kcat/Km (O=C(O)CCC(=O)C(=O)O) of 3540 M⁻¹ s⁻¹ and a Km [2] of 900 ± 60 µM. The Vmax [2] was 11.6 µmol/min/mg, the kcat [2] was 8.97 s⁻¹ and the kcat/Km [2] was 9960 M⁻¹ s⁻¹. The Km [3] was 78 ± 17 µM, the Vmax [3] was 6.29 µmol/min/mg and the kcat [3] was 4.87 s⁻¹. The kcat/Km [3] was 62500 M⁻¹ s⁻¹, the Km [4] was 70 ± 14 µM and the Vmax [4] was 5.43 µmol/min/mg. The kcat [4] was 4.21 s⁻¹ and the kcat/Km [4] was 60100 M⁻¹ s⁻¹.

Source: paper PMC12364357, “Glutamate dehydrogenase from Pantoea ananatis: A new bacterial enzyme with dual coenzyme specificity” (PLOS One, 2025)
